From the supplement of paper PMC7877785
± gives the uncertainty stated by the source.

Assay: self-splicing fitness, log relative to wild type (ln ratio); higher = more splicing; Tetrahymena group I intron in knt gene, E. coli kanamycin selection, DiMSum; sequences stand for … in CUCUCU…GGAGGGAAAAGUUAUCAGGCAUGCACCUGGUAGCUAGUCUUUAAACCAAUAGAUUGCAUCGGUUUAAAAGGCAAGACCGUCAAAUUGCGGGAAAGGGGUCAACAGCCGUUCAGUACCAAGUCUCAGGGGAAACUUUGAGAUGGCCUUGCAAAGGGUAUGGUAAUAAGCUGACGGACAUGGUCCUAACCACGCAGCCAAGUCCUAAGUCAACAGAUCUUCUGUUGAUAUGGAUGCAGUUCACAGACUAAAUGUCGGUCGGGGAAGAUGUAUUCUUCUCAUAAGAUAUAGUCGGACCUCUCCUUAAUGGGAGCUAGCGGAUGAAGUGAUGCAACACUGGAGCCGCUGGGAACUAAUUUGUAUGCGAAAGUAUAUUGAUUAGUUUUGGAGUACUCGUGGUCG
Method in brief: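 A randomised library covering all eight P1ex-region intron nucleotides was built with the intron in the knt kanamycin-resistance gene on pET-22b(+) and held in E. coli BL21(DE3). Cells were grown overnight at 37°C or 30°C on LB agar, with or without 25 μg/mL kanamycin, plus 100 μg/mL carbenicillin, 50 μM IPTG and 0.2% rhamnose, and pooled colonies were amplicon-sequenced on an Illumina HiSeq 2500. DiMSum fitness is the error-weighted combination of wild-type-normalised replicate fold changes, kanamycin versus none.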

Sequence | self-splicing fitness (ln) (37 °C) | self-splicing fitness (ln) (30 °C)
UCGAAGCAAUAUUACGCUCU | -1.36 ± 0.34 | 
UCGAAGCAAUAUUACGCUUA | -3.61 ± 0.37 | -2.28 ± 0.28
UCGAAGCAAUAUUACGCUUU | -2.94 ± 0.35 | -4.08 ± 0.3
UCGAAGCAAUAUUACGGACA | -0.235 ± 0.23 | -0.385 ± 0.15
UCGAAGCAAUAUUACGGAGC | -1.75 ± 0.33 | 
UCGAAGCAAUAUUACGGAGG | -1.82 ± 0.41 | -2.79 ± 0.32
UCGAAGCAAUAUUACGGAUA | -1.15 ± 0.19 | -1.08 ± 0.15
UCGAAGCAAUAUUACGGGAA | -0.804 ± 0.11 | -2.02 ± 0.12
UCGAAGCAAUAUUACGGGAU | -3.17 ± 0.32 | -3.98 ± 0.31
UCGAAGCAAUAUUACGUAUC |  | -3.96 ± 0.35
UCGAAGCAAUAUUACGUAUU | -3.17 ± 0.31 | -2.99 ± 0.18
UCGAAGCAAUAUUACGUCUG | -0.194 ± 0.077 | -0.0903 ± 0.069
UCGAAGCAAUAUUACGUGUG | -0.757 ± 0.073 | -1.43 ± 0.061
UCGAAGCAAUAUUACGUUAG | -1.35 ± 0.13 | -1.25 ± 0.1
UCGCAGCAAUAUUACGAACA | 0.339 ± 0.13 | -1.65 ± 0.12
UCGCAGCAAUAUUACGAAUA | -1.74 ± 0.16 | -2.57 ± 0.22
UCGCAGCAAUAUUACGAGCA | -0.449 ± 0.27 | -1.25 ± 0.23
UCGCAGCAAUAUUACGAGCU | -2.22 ± 0.26 | -3.14 ± 0.39
UCGCAGCAAUAUUACGAUGU | -2.31 ± 0.28 | -2.15 ± 0.18
UCGCAGCAAUAUUACGAUUU | -2.24 ± 0.17 | -3.55 ± 0.34

Sequence | self-splicing fitness (ln) (37 °C) | self-splicing fitness (ln) (30 °C)
UCGCAGCAAUAUUACGCAAA | -1.53 ± 0.11 | -2.05 ± 0.13
UCGCAGCAAUAUUACGCCCU | -0.902 ± 0.15 | -1.18 ± 0.13
UCGCAGCAAUAUUACGCCGG | -1.76 ± 0.38 | -2.67 ± 0.22
UCGCAGCAAUAUUACGGCCU | 0.148 ± 0.076 | -0.665 ± 0.057
UCGCAGCAAUAUUACGGCGC | -0.971 ± 0.17 | -1.87 ± 0.12
UCGCAGCAAUAUUACGGGAU | -2.3 ± 0.18 | -3.64 ± 0.25
UCGCAGCAAUAUUACGGGUA | -1.08 ± 0.052 | -1.78 ± 0.071
UCGCAGCAAUAUUACGGUCU | -1.13 ± 0.12 | -3.22 ± 0.2
UCGCAGCAAUAUUACGGUGC | -1.62 ± 0.15 | -4.1 ± 0.24
UCGCAGCAAUAUUACGUAAG | -1.12 ± 0.11 | -1.4 ± 0.099
UCGCAGCAAUAUUACGUUCG | -0.562 ± 0.094 | -0.961 ± 0.088
UCGGAGCAAUAUUACGACUG | 0.217 ± 0.17 | -1.59 ± 0.31
UCGGAGCAAUAUUACGCUGA | -2.16 ± 0.2 | -2.56 ± 0.29
UCGGAGCAAUAUUACGGAGG | -1.98 ± 0.34 | -3.68 ± 0.46
UCGGAGCAAUAUUACGGCGU | -0.847 ± 0.16 | -1.82 ± 0.22
UCGGAGCAAUAUUACGGGGU |  | -3.57 ± 0.29
UCGGAGCAAUAUUACGGUCA |  | -0.984 ± 0.18
UCGGAGCAAUAUUACGGUGG | -2.01 ± 0.16 | -3.35 ± 0.12
UCGGAGCAAUAUUACGUGAG | -1.01 ± 0.12 | -1.65 ± 0.096
UCGGAGCAAUAUUACGUGCU | -2.66 ± 0.27 | 
